This is an account of results in US20170037110A1 (IMMATICS BIOTECHNOLOGIES, published 2017).

In experiment [1] the target is T1, HLA-A*02:01 (human).
T1 construct: monomers captured on streptavidin plates; also called MHC class I
As to the kind of experiment: UV peptide exchange ELISA. Put shortly: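 Peptide-MHC complexes formed by UV-triggered exchange of a cleavable peptide for the test peptide, with stabilised complexes indicating binding. Exchange products diluted 100 fold onto streptavidin-coated wells, 1h at 37° C.; HRP anti-β2m (2 μg/ml), TMB, absorbance at 450 nm gives exchange yield.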
(ELISA stands for enzyme-linked immunosorbent assay.)

The target in experiment [2] is T2, HLA-A*02:01 (human).
T2 construct: Construct limits and biotin tag are not described
As to the kind of experiment: pMHC used for negative control stimulations, biotin-pMHC on streptavidin beads.

In experiment [3] the target is T2, HLA-A*02:01. Nature of the experiment: pMHC complex coated on artificial APCs and used as fluorescent multimer A*02/SeqID No 663.
In experiment [4] the target is T2, HLA-A*02:01. As to the kind of experiment: pMHC complex coated on artificial APCs and used as fluorescent multimer A*02/SeqID No 662.

Take FLLVGDLMAV: in the experiment with HLA-A*02:01 [1], the peptide exchange yield lay in the range of 50 to 75%.

B1: DDX5-001 (YLLPAIVHI from DDX5) (peptide)
peptide: YLLPAIVHI
notes: Peptide of the negative control pMHC for the T-cell stimulations; also called 665
Regarding B1, the binding result with HLA-A*02:01 [2] is on record as “binds”.
As to KIQEMQHFL (also called MMP12 peptide) [SeqID No 663 peptide (KIQEMQHFL)], the binding result in the experiment with HLA-A*02:01 [3] is “binds”.
Molecule YLIPFTGIVGL came in with a peptide exchange yield in the experiment with HLA-A*02:01 [1] of 20 to 50%.
YILPTETIYV returned a peptide exchange yield with HLA-A*02:01 [1] of at least 75%.
ILVEADGAWVV registered a peptide exchange yield with HLA-A*02:01 [1] of at least 75%.
Same read-out and setting: under IMQDFPAEIFL stands at least 75%; under GLLEVMVNL, 50 to 75%.
Take SLMELPRGLFL: the peptide exchange yield with HLA-A*02:01 [1] was at least 75%.
Same read-out and setting: the same measure for FLSSVTYNL: 50 to 75%.
Take SLLELDGINL: the peptide exchange yield with HLA-A*02:01 [1] is 50 to 75%.
ILAPTVMMI: the peptide exchange yield in the experiment with HLA-A*02:01 [1] lay in the range of 50 to 75%.
FLQGYQLHL came in with a peptide exchange yield with HLA-A*02:01 [1] of at least 75%.
Still for that read-out and setting: the same measure for NLIGKIENV: 50 to 75%; for YAAPGGLIGV: 20 to 50%; for FLDENIGGVAV: 50 to 75%.
As to VTFGEKLLGV, the peptide exchange yield with HLA-A*02:01 [1] was 20 to 50%.
On the same count and under the same terms, under SLFIGEKAVLL stands 50 to 75%; under TLLAEALVTV, 50 to 75%; under KMSELRVTL, 50 to 75%.
Same read-out and setting: under VLLDVSAGQLLM stands at least 75%; under SLFSSLEPQIQPV, 50 to 75%.
For GLLDYPVGV, the peptide exchange yield in the experiment with HLA-A*02:01 [1] was 50 to 75%.
In the experiment with HLA-A*02:01 [1], TLLQIIETV showed a peptide exchange yield of 50 to 75%.
Regarding NIFDLQIYV, in the experiment with HLA-A*02:01 [1], the peptide exchange yield lay within 50 to 75%.
For FLYDNLVESL, the peptide exchange yield in the experiment with HLA-A*02:01 [1] fell in the range of 20 to 50%.
Still for that read-out and setting: the same measure for FLFSQLQYL: 20 to 50%; for FQLDPSSGVLVTV: 50 to 75%; for ILIDSIYKV: 50 to 75%.
Turning to KIQEILTQV (also called IGF2BP3 peptide) [SeqID No 662 peptide (KIQEILTQV)], the binding result in the experiment with HLA-A*02:01 [4] is recorded as “binds”.
Take ALLDPEVLSIFV: the peptide exchange yield with HLA-A*02:01 [1] was in the range of 50 to 75%.
In turn, YLLPSGGSVTL displayed a peptide exchange yield with HLA-A*02:01 [1] of 20 to 50%.
Same read-out and setting: the same measure for GILARIASV: 50 to 75%; for ALPEAPAPLLPHIT: 20 to 50%.
